We go through 21 molecules from article PMC6555819, “Comprehensive study of nuclear receptor DNA binding provides a revised framework for understanding receptor specificity”.

The labels stand for the following.
B1: NRC3_random_hg19_12_o1 (dsDNA)
DNA 1: GCTTCCAGAATCAGACAATCACTGGGCTTGAACCAGGCGATTGACAGCGTAGAATGAAGG
DNA 2: CCTTCATTCTACGCTGTCAATCGCCTGGTTCAAGCCCAGTGATTGTCTGATTCTGGAAGC
B2: NRC3_random_hg19_287_o1 (dsDNA)
DNA 1: GCTCACTCAGAAGAGCAGAGCGACAGTGAATCTGAGGCGATTGACAGCGTAGAATGAAGG
DNA 2: CCTTCATTCTACGCTGTCAATCGCCTCAGATTCACTGTCGCTCTGCTCTTCTGAGTGAGC
B3: NRC3_random_hg19_261_o1 (dsDNA)
DNA 1: GCCTGGCTCCAGACAGACAAGAAGACTCCTTCAGTCGCGATTGACAGCGTAGAATGAAGG
DNA 2: CCTTCATTCTACGCTGTCAATCGCGACTGAAGGAGTCTTCTTGTCTGTCTGGAGCCAGGC
B4: NRC3_wobSeed134_DR5_G11T_o1 (dsDNA)
DNA 1: GCGCTGCTAGTTCAACTGATGGTCAGCTAAAGCTCGGCGATTGACAGCGTAGAATGAAGG
DNA 2: CCTTCATTCTACGCTGTCAATCGCCGAGCTTTAGCTGACCATCAGTTGAACTAGCAGCGC
B5: NRC3_random_hg19_258_o1 (dsDNA)
DNA 1: GCGTAAGATGGCAGGTGCCCAGAGCTAAGCTTTGATGCGATTGACAGCGTAGAATGAAGG
DNA 2: CCTTCATTCTACGCTGTCAATCGCATCAAAGCTTAGCTCTGGGCACCTGCCATCTTACGC
B6: NRC3_wobSeed113_DR4_T12A_o1 (dsDNA)
DNA 1: GCATATGTAGGATAGCTGGGGTCATTCAGACTAGGCGCGATTGACAGCGTAGAATGAAGG
DNA 2: CCTTCATTCTACGCTGTCAATCGCGCCTAGTCTGAATGACCCCAGCTATCCTACATATGC
B7: NRC3_random_hg19_448_o1 (dsDNA)
DNA 1: GCAGAAGAAGACCAAAGTATTCCCTCACTGCCTATGGCGATTGACAGCGTAGAATGAAGG
DNA 2: CCTTCATTCTACGCTGTCAATCGCCATAGGCAGTGAGGGAATACTTTGGTCTTCTTCTGC
B8: NRC3_wobSeed109_DR4_A16T_o1 (dsDNA)
DNA 1: GCCGTCCAAGGTCATTGGAGGTCAGTGAAGACAGATGCGATTGACAGCGTAGAATGAAGG
DNA 2: CCTTCATTCTACGCTGTCAATCGCATCTGTCTTCACTGACCTCCAATGACCTTGGACGGC
B9: NRC3_wobSeed120_DR4_G16T_o1 (dsDNA)
DNA 1: GCCCGAGTAGGTTACTAGGGGGCATTCAGTGCGAATGCGATTGACAGCGTAGAATGAAGG
DNA 2: CCTTCATTCTACGCTGTCAATCGCATTCGCACTGAATGCCCCCTAGTAACCTACTCGGGC
B10: NRC3_wobSeed120_DR4_T8G_o1 (dsDNA)
DNA 1: B9 DNA 1 with T8G, T16G
DNA 2: B9 DNA 2 with A45C, A53C
B11: NRC3_random_hg19_334_o1 (dsDNA)
DNA 1: GCTGCTGACTTGCTGGTTAGAGGGAACACATTCCCAGCGATTGACAGCGTAGAATGAAGG
DNA 2: CCTTCATTCTACGCTGTCAATCGCTGGGAATGTGTTCCCTCTAACCAGCAAGTCAGCAGC
B12: NRC3_random_hg19_124_o1 (dsDNA)
DNA 1: GCTCAGTTCCTCTGCAGCCAACCAGTCTTGGTGCCTGCGATTGACAGCGTAGAATGAAGG
DNA 2: CCTTCATTCTACGCTGTCAATCGCAGGCACCAAGACTGGTTGGCTGCAGAGGAACTGAGC
B13: NRC3_wobSeed116_DR4_A21T_o1 (dsDNA)
DNA 1: GCAGAATGAGGTTACCAAAGTTCAGGGAAACGCTTGGCGATTGACAGCGTAGAATGAAGG
DNA 2: CCTTCATTCTACGCTGTCAATCGCCAAGCGTTTCCCTGAACTTTGGTAACCTCATTCTGC
B14: NRC3_wobSeed98_DR4_A28C_o1 (dsDNA)
DNA 1: GCACTAGTTGGTCAGCTGAGGTCACACCCAATTCGGGCGATTGACAGCGTAGAATGAAGG
DNA 2: CCTTCATTCTACGCTGTCAATCGCCCGAATTGGGTGTGACCTCAGCTGACCAACTAGTGC
B15: NRC3_wobSeed97_DR4_G16T_o1 (dsDNA)
DNA 1: GCCAAACTAGGTCACTAAAGGTCAAAGTCGAATGACGCGATTGACAGCGTAGAATGAAGG
DNA 2: CCTTCATTCTACGCTGTCAATCGCGTCATTCGACTTTGACCTTTAGTGACCTAGTTTGGC
B16: NRC3_wobSeed122_DR5_C24G_o1 (dsDNA)
DNA 1: GCGCTAGTTGGTCAGTAAAAGGTGACACACCGGTCGGCGATTGACAGCGTAGAATGAAGG
DNA 2: CCTTCATTCTACGCTGTCAATCGCCGACCGGTGTGTCACCTTTTACTGACCAACTAGCGC
B17: NRC3_random_hg19_143_o1 (dsDNA)
DNA 1: GCCAAGAATCAGACTCTTAAGTAGATGCCTGTAGCTGCGATTGACAGCGTAGAATGAAGG
DNA 2: CCTTCATTCTACGCTGTCAATCGCAGCTACAGGCATCTACTTAAGAGTCTGATTCTTGGC
B18: NRC3_wobSeed101_DR4_C13T_o1 (dsDNA)
DNA 1: GCCCTTACGGGTTACTCCAGGTTATAGCATCGGAGTGCGATTGACAGCGTAGAATGAAGG
DNA 2: CCTTCATTCTACGCTGTCAATCGCACTCCGATGCTATAACCTGGAGTAACCCGTAAGGGC
B19: NRC3_wobSeed26_DR1_A14T_o1 (dsDNA)
DNA 1: GCTCTAGTTGGTCTAAGGTCACACACTCGAAATGCGGCGATTGACAGCGTAGAATGAAGG
DNA 2: CCTTCATTCTACGCTGTCAATCGCCGCATTTCGAGTGTGTGACCTTAGACCAACTAGAGC
B20: NRC3_random_hg19_424_o1 (dsDNA)
DNA 1: GCGCCTTCTCTACAGGGCATACAGACTGACATTGAGGCGATTGACAGCGTAGAATGAAGG
DNA 2: CCTTCATTCTACGCTGTCAATCGCCTCAATGTCAGTCTGTATGCCCTGTAGAGAAGGCGC
B21: NRC3_random_hg19_50_o1 (dsDNA)
DNA 1: GCTGAAGAGTTTCTAACTCTTTGTTCTTGAATCAAAGCGATTGACAGCGTAGAATGAAGG
DNA 2: CCTTCATTCTACGCTGTCAATCGCTTTGATTCAAGAACAAAGAGTTAGAAACTCTTCAGC

Residue numbers refer to the chain shown, from its start.

Sequence of LXRb:RXRa (P55055 whole entry, chain 1 of 2): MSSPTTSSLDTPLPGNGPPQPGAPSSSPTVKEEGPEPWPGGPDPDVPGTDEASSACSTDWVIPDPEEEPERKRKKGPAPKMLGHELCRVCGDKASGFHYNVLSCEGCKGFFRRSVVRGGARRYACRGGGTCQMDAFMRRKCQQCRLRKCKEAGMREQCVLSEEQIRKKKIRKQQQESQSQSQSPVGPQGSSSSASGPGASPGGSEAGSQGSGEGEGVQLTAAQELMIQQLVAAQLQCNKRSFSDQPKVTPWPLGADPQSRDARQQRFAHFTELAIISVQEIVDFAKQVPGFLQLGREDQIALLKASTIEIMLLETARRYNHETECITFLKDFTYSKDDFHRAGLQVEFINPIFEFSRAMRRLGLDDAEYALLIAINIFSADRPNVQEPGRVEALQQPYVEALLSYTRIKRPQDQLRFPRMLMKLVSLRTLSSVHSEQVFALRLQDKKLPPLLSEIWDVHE
Sequence of LXRb:RXRa (P19793 whole entry, chain 2 of 2): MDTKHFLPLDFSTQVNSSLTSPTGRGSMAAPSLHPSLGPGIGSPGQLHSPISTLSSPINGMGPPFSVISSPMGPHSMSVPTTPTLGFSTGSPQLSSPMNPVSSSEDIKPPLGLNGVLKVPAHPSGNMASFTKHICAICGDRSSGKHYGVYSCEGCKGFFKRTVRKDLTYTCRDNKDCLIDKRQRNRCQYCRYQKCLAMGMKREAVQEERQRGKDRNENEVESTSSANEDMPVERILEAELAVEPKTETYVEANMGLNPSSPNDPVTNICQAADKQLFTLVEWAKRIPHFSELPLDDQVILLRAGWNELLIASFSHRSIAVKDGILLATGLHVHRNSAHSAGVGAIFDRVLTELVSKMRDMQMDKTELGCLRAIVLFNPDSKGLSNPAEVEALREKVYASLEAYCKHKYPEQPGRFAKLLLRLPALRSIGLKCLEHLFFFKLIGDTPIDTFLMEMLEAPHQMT
Sequence of PPARa:RXRa (Q07869 whole entry, chain 1 of 2): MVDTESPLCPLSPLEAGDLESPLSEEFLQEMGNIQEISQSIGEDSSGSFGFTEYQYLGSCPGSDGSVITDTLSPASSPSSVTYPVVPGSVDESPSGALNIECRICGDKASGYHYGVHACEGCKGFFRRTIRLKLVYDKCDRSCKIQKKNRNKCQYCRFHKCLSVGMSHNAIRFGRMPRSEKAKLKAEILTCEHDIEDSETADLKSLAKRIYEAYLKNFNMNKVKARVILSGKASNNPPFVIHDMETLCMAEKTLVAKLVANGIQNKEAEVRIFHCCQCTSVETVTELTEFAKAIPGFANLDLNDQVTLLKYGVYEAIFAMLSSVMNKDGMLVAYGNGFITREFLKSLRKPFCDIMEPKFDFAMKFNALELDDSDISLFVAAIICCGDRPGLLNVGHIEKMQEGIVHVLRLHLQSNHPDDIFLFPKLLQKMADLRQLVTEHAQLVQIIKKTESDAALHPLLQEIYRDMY
Sequence of PPARa:RXRa (P19793 whole entry, chain 2 of 2): as the sequence (P19793 whole entry, chain 2 of 2) above
Sequence of RARb:RXRa (P10826 whole entry, chain 1 of 2): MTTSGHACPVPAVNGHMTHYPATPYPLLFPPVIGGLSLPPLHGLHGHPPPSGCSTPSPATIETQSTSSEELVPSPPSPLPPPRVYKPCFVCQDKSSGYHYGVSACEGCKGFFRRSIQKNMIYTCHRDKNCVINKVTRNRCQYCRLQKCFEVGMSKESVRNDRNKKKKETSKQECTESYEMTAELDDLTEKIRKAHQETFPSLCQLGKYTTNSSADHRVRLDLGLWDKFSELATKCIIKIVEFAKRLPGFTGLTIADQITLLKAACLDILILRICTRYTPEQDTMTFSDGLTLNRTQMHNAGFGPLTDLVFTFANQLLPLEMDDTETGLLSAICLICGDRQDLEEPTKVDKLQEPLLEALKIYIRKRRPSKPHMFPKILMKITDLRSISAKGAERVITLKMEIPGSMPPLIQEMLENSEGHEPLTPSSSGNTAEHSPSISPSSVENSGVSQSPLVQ
Sequence of RARb:RXRa (P19793 whole entry, chain 2 of 2): as the sequence (P19793 whole entry, chain 2 of 2) above
Sequence of RARg:RXRa (P13631 whole entry, chain 1 of 2): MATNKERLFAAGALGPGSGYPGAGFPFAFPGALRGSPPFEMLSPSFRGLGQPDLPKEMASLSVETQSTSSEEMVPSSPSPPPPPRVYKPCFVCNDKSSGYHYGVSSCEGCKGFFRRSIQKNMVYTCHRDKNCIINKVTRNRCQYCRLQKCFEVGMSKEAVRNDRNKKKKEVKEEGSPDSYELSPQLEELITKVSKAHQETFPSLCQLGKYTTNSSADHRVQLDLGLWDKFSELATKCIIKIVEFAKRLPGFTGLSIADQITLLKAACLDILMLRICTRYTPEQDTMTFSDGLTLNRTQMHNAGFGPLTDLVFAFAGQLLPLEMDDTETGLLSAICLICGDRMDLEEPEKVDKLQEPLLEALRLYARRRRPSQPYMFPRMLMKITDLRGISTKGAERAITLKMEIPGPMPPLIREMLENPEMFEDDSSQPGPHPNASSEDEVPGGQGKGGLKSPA
Sequence of RARg:RXRa (P19793 whole entry, chain 2 of 2): as the sequence (P19793 whole entry, chain 2 of 2) above
Sequence of FXR:RXRa (Q96RI1 whole entry, chain 1 of 2): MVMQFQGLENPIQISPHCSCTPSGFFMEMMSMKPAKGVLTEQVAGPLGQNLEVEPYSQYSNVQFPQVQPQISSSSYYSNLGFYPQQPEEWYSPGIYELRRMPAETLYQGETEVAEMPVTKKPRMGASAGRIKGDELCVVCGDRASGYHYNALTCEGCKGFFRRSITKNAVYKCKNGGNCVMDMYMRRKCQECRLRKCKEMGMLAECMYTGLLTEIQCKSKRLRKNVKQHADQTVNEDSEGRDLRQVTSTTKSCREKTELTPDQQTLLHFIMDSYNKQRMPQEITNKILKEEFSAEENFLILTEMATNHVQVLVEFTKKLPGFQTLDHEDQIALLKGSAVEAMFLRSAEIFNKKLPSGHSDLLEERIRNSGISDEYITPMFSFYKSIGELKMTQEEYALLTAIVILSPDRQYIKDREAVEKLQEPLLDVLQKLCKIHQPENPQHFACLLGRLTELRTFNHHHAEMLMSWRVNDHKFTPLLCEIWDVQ
Sequence of FXR:RXRa (P19793 whole entry, chain 2 of 2): as the sequence (P19793 whole entry, chain 2 of 2) above

The first data set deals with RXRa (Homo sapiens, UniProt P19793). The experiment in a line: no ligand; PBM; 180 nM; PBS pH 7.4, 2% milk, 0.02% Triton X-100, 1 mM DTT, BSA, 0.4 mg/ml salmon testes DNA. The following applies: tags: His cleaved; chain copies: 2; label: surface-attached array probe.
Sequence of RXRa (P19793 whole entry): as the sequence (P19793 whole entry, chain 2 of 2) above
On to B1, for which the binding signal was -0.01 PBM z-score against 500 random probes.

Turning to B2, the binding signal is 0.27 PBM z-score against 500 random probes.

In the case of B3, the binding signal was -0.45 PBM z-score against 500 random probes.

As for B4, the binding signal is 0.29 PBM z-score against 500 random probes.

In the case of B5, the binding signal is -0.61 PBM z-score against 500 random probes.

For the next data set, the target named is FXR:RXRa (Homo sapiens, UniProt Q96RI1;P19793 full;full). The data set is described as follows: no ligand; PBM; 270 nM : 90 nM RXRa; PBS pH 7.4, 2% milk, 0.02% Triton X-100, 1 mM DTT, BSA, 0.4 mg/ml salmon testes DNA. The conditions noted are these: tags: His kept;His cleaved; copies: 1;1; label: surface-attached array probe. In short, it runs like this:
(§1)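 Binding z-scores take random background probes as their reference. They come from custom Agilent 4×180K protein-binding microarrays incubated 1 h with ligand-free nuclear receptor dimers, with antibodies against each partner (one per run) detecting binding. Scanned fluorescence was regression-normalized.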
With B1, the binding signal is 0.11 PBM z-score against 500 random probes.

The next data set deals with LXRa:RXRa (Homo sapiens, UniProt Q13133;P19793 full;full). The data set is described as above. The conditions noted are these: tags: His kept;His cleaved; copies: 1;1; label: surface-attached array probe. The essentials: as §1
Sequence of LXRa:RXRa (Q13133 whole entry, chain 1 of 2): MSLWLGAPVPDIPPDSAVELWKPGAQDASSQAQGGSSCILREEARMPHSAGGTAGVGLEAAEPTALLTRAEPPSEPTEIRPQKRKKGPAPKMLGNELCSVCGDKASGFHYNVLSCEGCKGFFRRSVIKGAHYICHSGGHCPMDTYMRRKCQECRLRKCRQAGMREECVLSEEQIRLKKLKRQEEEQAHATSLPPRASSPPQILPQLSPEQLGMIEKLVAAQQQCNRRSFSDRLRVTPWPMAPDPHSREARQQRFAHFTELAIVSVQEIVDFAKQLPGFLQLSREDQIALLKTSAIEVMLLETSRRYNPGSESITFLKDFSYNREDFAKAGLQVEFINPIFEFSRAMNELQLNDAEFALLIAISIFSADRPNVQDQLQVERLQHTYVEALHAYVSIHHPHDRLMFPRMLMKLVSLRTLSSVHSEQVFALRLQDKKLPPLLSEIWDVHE
Sequence of LXRa:RXRa (P19793 whole entry, chain 2 of 2): as the sequence (P19793 whole entry, chain 2 of 2) above
As for B6, the binding signal was 3.41 PBM z-score against 500 random probes.

As to B7, the binding signal is -0.67 PBM z-score against 500 random probes.

With B8, the binding signal is 8.57 PBM z-score against 500 random probes.

B9: the binding signal is 8.51 PBM z-score against 500 random probes.

With B10, the binding signal is 8.32 PBM z-score against 500 random probes.

Take B1: the binding signal is -0.13 PBM z-score against 500 random probes.

As for B11, the binding signal was -0.52 PBM z-score against 500 random probes.

For the molecule B2, the binding signal was 0.05 PBM z-score against 500 random probes.

Consider B12, for which the binding signal is 0.33 PBM z-score against 500 random probes.

Regarding B13, the binding signal is 8.81 PBM z-score against 500 random probes.

Regarding B3, the binding signal is -1.08 PBM z-score against 500 random probes.

Regarding B14, the binding signal is 3.12 PBM z-score against 500 random probes.

On to B4, for which the binding signal is 0.25 PBM z-score against 500 random probes.

In the case of B15, the binding signal was 9.5 PBM z-score against 500 random probes.

With B16, the binding signal was 0.28 PBM z-score against 500 random probes.

On to B17, for which the binding signal is -0.64 PBM z-score against 500 random probes.

On to B18, for which the binding signal is 8.39 PBM z-score against 500 random probes.

Take B19: the binding signal is 4.12 PBM z-score against 500 random probes.

On to B20, for which the binding signal was 0.42 PBM z-score against 500 random probes.

Regarding B21, the binding signal is -0.55 PBM z-score against 500 random probes.

For B5, the binding signal is -1 PBM z-score against 500 random probes.

The next data set deals with PPARa:RXRa (Homo sapiens, UniProt Q07869;P19793 full;full). The description is as above. The following applies: tags: GST kept;His cleaved; copies: 1;1; label: surface-attached array probe. In short, it runs like this:
as §1
For the molecule B7, the binding signal was -0.65 PBM z-score against 500 random probes.

As for B9, the binding signal is 3.42 PBM z-score against 500 random probes.

In the case of B4, the binding signal was 0.24 PBM z-score against 500 random probes.

A further data set has as its target RARb:RXRa (Homo sapiens, UniProt P10826;P19793 full;full). The data set is described as above. The following applies: tags: His kept;His cleaved; copies: 1;1; label: surface-attached array probe. In short, it runs like this: as §1
B1: the binding signal is -0.1 PBM z-score against 500 random probes.

Turning to B2, the binding signal is -0.16 PBM z-score against 500 random probes.

The target of the next data set is VDR:RXRa (Homo sapiens, UniProt P11473;P19793 full;full). Described as above. The conditions noted are these: tags: His kept;His cleaved; copies: 1;1; label: surface-attached array probe. In short, it runs like this: as §1
Sequence of VDR:RXRa (P11473 whole entry, chain 1 of 2): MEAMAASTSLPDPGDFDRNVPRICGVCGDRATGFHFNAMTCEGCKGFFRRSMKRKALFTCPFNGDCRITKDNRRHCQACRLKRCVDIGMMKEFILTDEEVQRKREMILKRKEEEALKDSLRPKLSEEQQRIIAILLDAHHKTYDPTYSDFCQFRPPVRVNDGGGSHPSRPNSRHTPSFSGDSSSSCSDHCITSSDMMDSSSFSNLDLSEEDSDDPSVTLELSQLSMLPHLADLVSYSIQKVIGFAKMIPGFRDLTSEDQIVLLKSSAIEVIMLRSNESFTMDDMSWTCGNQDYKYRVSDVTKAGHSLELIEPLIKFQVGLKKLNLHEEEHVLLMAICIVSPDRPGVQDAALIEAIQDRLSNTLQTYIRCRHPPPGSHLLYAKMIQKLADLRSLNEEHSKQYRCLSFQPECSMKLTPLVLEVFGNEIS
Sequence of VDR:RXRa (P19793 whole entry, chain 2 of 2): as the sequence (P19793 whole entry, chain 2 of 2) above
B7: the binding signal is -0.71 PBM z-score against 500 random probes.

In the case of B12, the binding signal was -0.13 PBM z-score against 500 random probes.

For the molecule B16, the binding signal was 0.14 PBM z-score against 500 random probes.

Turning to B17, the binding signal was -0.44 PBM z-score against 500 random probes.

B19: the binding signal was 4.12 PBM z-score against 500 random probes.

For B20, the binding signal was -0.21 PBM z-score against 500 random probes.

Turning to B21, the binding signal is -0.07 PBM z-score against 500 random probes.

Another data set addresses LXRb:RXRa (Homo sapiens, UniProt P55055;P19793 full;full). The data set is described as above. The following applies: tags: His kept;His cleaved; copies: 1;1; label: surface-attached array probe. The essentials:
as §1
For B6, the binding signal is 3.83 PBM z-score against 500 random probes.

Turning to B8, the binding signal was 7.27 PBM z-score against 500 random probes.

On to B9, for which the binding signal is 7.83 PBM z-score against 500 random probes.

B10: the binding signal was 7.6 PBM z-score against 500 random probes.

B11: the binding signal is -0.46 PBM z-score against 500 random probes.

In the case of B13, the binding signal was 6.78 PBM z-score against 500 random probes.

With B14, the binding signal was 3.3 PBM z-score against 500 random probes.

As for B15, the binding signal was 8.55 PBM z-score against 500 random probes.

As to B18, the binding signal is 6.25 PBM z-score against 500 random probes.

The next data set addresses RARg:RXRa (Homo sapiens, UniProt P13631;P19793 full;full). The data set is described as above. The conditions noted are these: tags: His kept;His cleaved; copies: 1;1; label: surface-attached array probe. In short, it runs like this:
as §1
On to B17, for which the binding signal is -0.43 PBM z-score against 500 random probes.

For B5, the binding signal was -0.94 PBM z-score against 500 random probes.
